Holding throughout (test): purified protein
What all share (format): biochemical, Branchiostoma belcheri
Holding throughout (conditions): Na phosphate buffer (pH range 6.0-8.0 stated; optimum pH 7.0), 25 °C, substrate 5-150 μM

Substrate in data set [1]: CCCCC[C@@H](/C=C/C=C\CCCCCCCC(=O)O)OO
Substrate in data set [2]: CC/C=C\C/C=C\C=C\[C@H](CCCCCCCC(=O)O)OO
Substrate in data set [3]: CCCCC/C=C\C=C\[C@H](CCCCCCCC(=O)O)OO
Substrate in data set [4]: CC/C=C\C[C@@H](/C=C/C=C\CCCCCCCC(=O)O)OO

B1: CYP440A18 (BbEAS/AOS) (Branchiostoma belcheri) (protein)
chain: MGNAIGYLKWLGQGKQAFAPDRKEDFVETNIGFPCRVVTGNKAVQSVFDIDLFKKEEFFFGLIEIRKEFTEGVCPSVTSNGKIHEKNKALMMDVIAGAYEEIPTSTADAVLSNIATWGSTPTDFESKLMAVSAGIFLPTIFGRSTRFNPEDVNLYVKGATELRSDILAAVTREDLTETRRGMRSVLEKIKTSERYSQLIDLGRSHGLDEASTTGQLLFCVMFNAVGGTATNLVATFGRLDTISAEDRQELREEALAALRKHGGLTRAALEEMPKIESFVLEVLRTCPSPGVWSHIAARPTTVKYTTASGPKEVNIKEGERVYASPYWALRDPAVFDKPDDFVWRRFLGPEGEALREHHVTFHGRLTDSAAVNNHMCPGRDVALSVIKGSIAILNTFFGWELQERPFWTGTKVSRIGQPDNVVKVKSFWLQHPDDLKEIFPSHFEEIHDSLNSAVLQCP
notes: full-length, 458 aa; codon-adapted synthetic gene in pET-23a; C-terminal His tag; E. coli BL21(DE3)pLysS; IMAC purified
Consider B1, for which the Km in the data set “purified protein [1]” is 18.6 µM; in the data set “purified protein [2]” it was 31.8 µM; in “purified protein [3]” it was 37.0 µM; in the data set “purified protein [4]” it was 17.6 µM. The kcat stood at 174 s⁻¹ in “purified protein [1]”, 248 s⁻¹ in the data set “purified protein [2]”, 164 s⁻¹ in the data set “purified protein [3]” and 432 s⁻¹ in the data set “purified protein [4]”. Further, the catalytic efficiency (kcat/Km) was 9.4e+06 M⁻¹ s⁻¹ in “purified protein [1]”, 7.8e+06 M⁻¹ s⁻¹ in the data set “purified protein [2]”, 4.4e+06 M⁻¹ s⁻¹ in the data set “purified protein [3]” and 2.45e+07 M⁻¹ s⁻¹ in the data set “purified protein [4]”.

Values taken from PMC8124189, “Detection of the First Epoxyalcohol Synthase/Allene Oxide Synthase (CYP74 Clan) in the Lancelet (Branchiostoma belcheri, Chordata)” (International Journal of Molecular Sciences, 2021).
